# Article PMC9279507
# T1: 6XHis-tagged TgIST-R2 (G365-S420)
# T1 chain: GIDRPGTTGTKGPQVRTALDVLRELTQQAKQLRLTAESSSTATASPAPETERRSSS
# B1: STAT1cc (STAT1 core fragment, A656C and N658C, locked dimer), tag-free, P42224 E618A (protein)
# chain: MSQWYELQQLDSKFLEQVHQLYDDSFPMEIRQYLAQWLEKQDWEHAANDVSFATIRFHDLLSQLDDQYSRFSLENNFLLQHNIRKSKRNLQDNFQEDPIQMSMIIYSCLKEERKILENAQRFNQAQSGNIQSTVMLDKQKELDSKVRNVKDKVMCIEHEIKSLEDLQDEYDFKCKTLQNREHETNGVAKSDQKQEQLLLKKMYLMLDNKRKEVVHKIIELLNVTELTQNALINDELVEWKRRQQSACIGGPPNACLDQLQNWFTIVAESLQQVRQQLKKLEELEQKYTYEHDPITKNKQVLWDRTFSLFQQLIQSSFVVERQPCMPTHPQRPLVLKTGVQFTVKLRLLVKLQELNYNLKVKVLFDKDVNERNTVKGFRKFNILGTHTKVMNMEESTNGSLAAEFRHLQLKEQKNAGTRTNEGPLIVTEELHSLSFETQLCQPGLVIDLETTSLPVVVISNVSQLPSGWASILWYNMLVAEPRNLSFFLTPPCARWAQLSEVLSWQFSSVTKRGLNVDQLNMLGEKLLGPNASPDGLIPWTRFCKENINDKNFPFWLWIESILELIKKHLLPLWNDGCIMGFISKERERALLKDQQPGTFLLRFSESSREGAITFTWVARSQNGGEPDFHAVEPYTKKELSAVTFPDIIRNYKVMAAENIPENPLKYLYPNIDKDHAFGKYYSRPKEAPEPMELDGPKGTGYIKTELISVSEVHPSRLQTTDNLLPMSPEEFDEVSRIVGSVEFDSMMNTV
# B2: STAT1cc (STAT1 core fragment, A656C and N658C, locked dimer), tag-free, P42224 D593A (protein)
# chain: MSQWYELQQLDSKFLEQVHQLYDDSFPMEIRQYLAQWLEKQDWEHAANDVSFATIRFHDLLSQLDDQYSRFSLENNFLLQHNIRKSKRNLQDNFQEDPIQMSMIIYSCLKEERKILENAQRFNQAQSGNIQSTVMLDKQKELDSKVRNVKDKVMCIEHEIKSLEDLQDEYDFKCKTLQNREHETNGVAKSDQKQEQLLLKKMYLMLDNKRKEVVHKIIELLNVTELTQNALINDELVEWKRRQQSACIGGPPNACLDQLQNWFTIVAESLQQVRQQLKKLEELEQKYTYEHDPITKNKQVLWDRTFSLFQQLIQSSFVVERQPCMPTHPQRPLVLKTGVQFTVKLRLLVKLQELNYNLKVKVLFDKDVNERNTVKGFRKFNILGTHTKVMNMEESTNGSLAAEFRHLQLKEQKNAGTRTNEGPLIVTEELHSLSFETQLCQPGLVIDLETTSLPVVVISNVSQLPSGWASILWYNMLVAEPRNLSFFLTPPCARWAQLSEVLSWQFSSVTKRGLNVDQLNMLGEKLLGPNASPDGLIPWTRFCKENINDKNFPFWLWIESILELIKKHLLPLWNDGCIMGFISKERERALLKAQQPGTFLLRFSESSREGAITFTWVERSQNGGEPDFHAVEPYTKKELSAVTFPDIIRNYKVMAAENIPENPLKYLYPNIDKDHAFGKYYSRPKEAPEPMELDGPKGTGYIKTELISVSEVHPSRLQTTDNLLPMSPEEFDEVSRIVGSVEFDSMMNTV
# B3: STAT1cc (STAT1 core fragment, A656C and N658C, locked dimer), tag-free, P42224 Q621A (protein)
# chain: MSQWYELQQLDSKFLEQVHQLYDDSFPMEIRQYLAQWLEKQDWEHAANDVSFATIRFHDLLSQLDDQYSRFSLENNFLLQHNIRKSKRNLQDNFQEDPIQMSMIIYSCLKEERKILENAQRFNQAQSGNIQSTVMLDKQKELDSKVRNVKDKVMCIEHEIKSLEDLQDEYDFKCKTLQNREHETNGVAKSDQKQEQLLLKKMYLMLDNKRKEVVHKIIELLNVTELTQNALINDELVEWKRRQQSACIGGPPNACLDQLQNWFTIVAESLQQVRQQLKKLEELEQKYTYEHDPITKNKQVLWDRTFSLFQQLIQSSFVVERQPCMPTHPQRPLVLKTGVQFTVKLRLLVKLQELNYNLKVKVLFDKDVNERNTVKGFRKFNILGTHTKVMNMEESTNGSLAAEFRHLQLKEQKNAGTRTNEGPLIVTEELHSLSFETQLCQPGLVIDLETTSLPVVVISNVSQLPSGWASILWYNMLVAEPRNLSFFLTPPCARWAQLSEVLSWQFSSVTKRGLNVDQLNMLGEKLLGPNASPDGLIPWTRFCKENINDKNFPFWLWIESILELIKKHLLPLWNDGCIMGFISKERERALLKDQQPGTFLLRFSESSREGAITFTWVERSANGGEPDFHAVEPYTKKELSAVTFPDIIRNYKVMAAENIPENPLKYLYPNIDKDHAFGKYYSRPKEAPEPMELDGPKGTGYIKTELISVSEVHPSRLQTTDNLLPMSPEEFDEVSRIVGSVEFDSMMNTV
# B4: STAT1cc (STAT1 core fragment, A656C and N658C, locked dimer), tag-free, P42224 Q621W (protein)
# chain: MSQWYELQQLDSKFLEQVHQLYDDSFPMEIRQYLAQWLEKQDWEHAANDVSFATIRFHDLLSQLDDQYSRFSLENNFLLQHNIRKSKRNLQDNFQEDPIQMSMIIYSCLKEERKILENAQRFNQAQSGNIQSTVMLDKQKELDSKVRNVKDKVMCIEHEIKSLEDLQDEYDFKCKTLQNREHETNGVAKSDQKQEQLLLKKMYLMLDNKRKEVVHKIIELLNVTELTQNALINDELVEWKRRQQSACIGGPPNACLDQLQNWFTIVAESLQQVRQQLKKLEELEQKYTYEHDPITKNKQVLWDRTFSLFQQLIQSSFVVERQPCMPTHPQRPLVLKTGVQFTVKLRLLVKLQELNYNLKVKVLFDKDVNERNTVKGFRKFNILGTHTKVMNMEESTNGSLAAEFRHLQLKEQKNAGTRTNEGPLIVTEELHSLSFETQLCQPGLVIDLETTSLPVVVISNVSQLPSGWASILWYNMLVAEPRNLSFFLTPPCARWAQLSEVLSWQFSSVTKRGLNVDQLNMLGEKLLGPNASPDGLIPWTRFCKENINDKNFPFWLWIESILELIKKHLLPLWNDGCIMGFISKERERALLKDQQPGTFLLRFSESSREGAITFTWVERSWNGGEPDFHAVEPYTKKELSAVTFPDIIRNYKVMAAENIPENPLKYLYPNIDKDHAFGKYYSRPKEAPEPMELDGPKGTGYIKTELISVSEVHPSRLQTTDNLLPMSPEEFDEVSRIVGSVEFDSMMNTV
# B5: STAT1cc (STAT1 core fragment, A656C and N658C, locked dimer), tag-free, P42224 N662K (protein)
# chain: MSQWYELQQLDSKFLEQVHQLYDDSFPMEIRQYLAQWLEKQDWEHAANDVSFATIRFHDLLSQLDDQYSRFSLENNFLLQHNIRKSKRNLQDNFQEDPIQMSMIIYSCLKEERKILENAQRFNQAQSGNIQSTVMLDKQKELDSKVRNVKDKVMCIEHEIKSLEDLQDEYDFKCKTLQNREHETNGVAKSDQKQEQLLLKKMYLMLDNKRKEVVHKIIELLNVTELTQNALINDELVEWKRRQQSACIGGPPNACLDQLQNWFTIVAESLQQVRQQLKKLEELEQKYTYEHDPITKNKQVLWDRTFSLFQQLIQSSFVVERQPCMPTHPQRPLVLKTGVQFTVKLRLLVKLQELNYNLKVKVLFDKDVNERNTVKGFRKFNILGTHTKVMNMEESTNGSLAAEFRHLQLKEQKNAGTRTNEGPLIVTEELHSLSFETQLCQPGLVIDLETTSLPVVVISNVSQLPSGWASILWYNMLVAEPRNLSFFLTPPCARWAQLSEVLSWQFSSVTKRGLNVDQLNMLGEKLLGPNASPDGLIPWTRFCKENINDKNFPFWLWIESILELIKKHLLPLWNDGCIMGFISKERERALLKDQQPGTFLLRFSESSREGAITFTWVERSQNGGEPDFHAVEPYTKKELSAVTFPDIIRNYKVMAAENIPEKPLKYLYPNIDKDHAFGKYYSRPKEAPEPMELDGPKGTGYIKTELISVSEVHPSRLQTTDNLLPMSPEEFDEVSRIVGSVEFDSMMNTV
# Molecular target: T1, 6XHis-tagged TgIST-R2 (G365-S420)
# Assay: nickel affinity copurification, SDS-PAGE, Coomassie blue band quantification
# Details: chain shown with the change;; parent: est. 1.0; read off a plot
row,Binder,ratio to parent
1,B1,0.82
2,B2,0.9
3,B3,0.87
4,B4,1.1
5,B5,0.26
